Results on two molecules are retold here after article PMC8890701 (Science Advances, 2022).

The target of assay [1] is S. pneumoniae LicB (S. pneumoniae). The experiment in a line: cryo-EM structure.
Assay [2] has as its target T1, S. pneumoniae LicB (Streptococcus pneumoniae TIGR4 (ATCC …)).
T1 chain: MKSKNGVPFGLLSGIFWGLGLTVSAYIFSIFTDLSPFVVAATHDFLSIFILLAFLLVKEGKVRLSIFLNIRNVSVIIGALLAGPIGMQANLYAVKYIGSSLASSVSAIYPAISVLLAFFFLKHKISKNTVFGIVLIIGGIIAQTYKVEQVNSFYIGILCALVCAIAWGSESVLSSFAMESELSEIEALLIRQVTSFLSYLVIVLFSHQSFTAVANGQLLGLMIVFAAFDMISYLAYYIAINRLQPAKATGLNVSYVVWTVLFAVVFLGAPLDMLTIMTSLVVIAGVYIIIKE
The experiment in a line: cryo-EM structure.

The molecule S. pneumoniae LicB (natural protein) showed a stoichiometry N in assay [1] of 2.

B1: sybody C (VHH)
VHH: QVQLVESGGGSVQAGGSLRLSCAASGTIHAIGYLGWFRQAPGKEREGVAALTTYDGWTYYADSVKGRFTVSLDNAKNTVYLQMNSLKPEDTALYYCAAADDGWMFPLYHNHYEYWGQGTQVTVSA
Turning to B1, the binding result in assay [2] was “binds”.

A word on the stoichiometry N: it is a count of units in the complex or per binding partner.
